Assay [1] deals with Mouse GLP-1R (mouse) (UniProt O35659).
Assay [2] deals with Human GLP-1R (human) (UniProt P43220).
Chain of Human GLP-1R (human) (P43220 24-463): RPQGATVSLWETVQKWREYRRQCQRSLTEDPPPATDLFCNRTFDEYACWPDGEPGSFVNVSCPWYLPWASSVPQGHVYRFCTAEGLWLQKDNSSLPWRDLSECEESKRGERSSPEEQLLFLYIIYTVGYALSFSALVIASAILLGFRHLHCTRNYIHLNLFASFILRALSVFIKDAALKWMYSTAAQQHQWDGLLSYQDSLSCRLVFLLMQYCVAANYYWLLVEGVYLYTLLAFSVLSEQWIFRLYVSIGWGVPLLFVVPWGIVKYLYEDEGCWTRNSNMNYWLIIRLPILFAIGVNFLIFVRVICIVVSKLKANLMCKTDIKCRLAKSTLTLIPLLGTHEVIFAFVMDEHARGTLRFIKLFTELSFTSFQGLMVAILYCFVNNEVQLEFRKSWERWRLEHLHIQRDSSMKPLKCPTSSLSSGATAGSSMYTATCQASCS

Chain of Mouse GLP-1R (mouse) (O35659 22-463): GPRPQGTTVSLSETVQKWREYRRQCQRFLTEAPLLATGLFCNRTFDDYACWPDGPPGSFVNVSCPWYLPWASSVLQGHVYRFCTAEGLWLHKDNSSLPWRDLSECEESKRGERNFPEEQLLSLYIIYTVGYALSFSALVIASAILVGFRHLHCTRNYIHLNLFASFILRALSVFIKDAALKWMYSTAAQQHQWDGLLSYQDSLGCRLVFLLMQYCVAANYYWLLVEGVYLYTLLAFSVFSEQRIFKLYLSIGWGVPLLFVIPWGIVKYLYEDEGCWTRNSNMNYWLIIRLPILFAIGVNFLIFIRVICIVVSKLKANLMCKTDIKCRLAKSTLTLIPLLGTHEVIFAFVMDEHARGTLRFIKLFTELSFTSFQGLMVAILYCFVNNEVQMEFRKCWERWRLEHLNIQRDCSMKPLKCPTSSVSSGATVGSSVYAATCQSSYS

In assay [1], “Exendin-4 (from UniProt P26349 48-87) (peptide)” had an Emax (%), Mouse GLP-1R activation, in vitro cell assay of 100%. Besides, the EC50 (nM), Human GLP-1R activation, in vitro cell assay in assay [2] was determined as 0.052 nM.
In assay [1], Liraglutide (peptide) showed an EC50 (nM), Mouse GLP-1R activation, in vitro cell assay of 0.185 nM and an Emax (%), Mouse GLP-1R activation, in vitro cell assay of 89%.

Source of the values: publication PMC6412877, “Novel Site-Specific Fatty Chain-Modified GLP-1 Receptor Agonist with Potent Antidiabetic Effects” (Molecules, 2019).
